# Measured values taken from US20240255509A1, “COMPOSITIONS AND METHODS RELATED TO K180 DIMETHYLATED H1.0 PROTEIN” (Aelan Cell Technologies, Inc., priority 2016, published 2024).
# Columns and labels:
# Type in all cases: biochemical
# [1] = biological target: T1, recombinant human H1.0 protein (Homo sapiens, UniProt P07305); assay: In vitro methylation with G9A, products identified by LC-MS; conditions: 1 μg full-length protein
# T1 construct: full-length recombinant human H1.0 (NEB, M2501S); purchased NEB M2501S (H1.0); M0235S (G9A)
# Protocol: (§1) In order to identify the precise sites of methylation by G9A and GLP methyltransferases on histone H1.0, in vitro methylation assays were performed and subsequently analyzed by Liquid Chromatography and High-resolution Mass Spectrometry (LC-MS) analysis. Methylation reactions were set up using either G9A methyltransferase (NEB, M0235S, Lot #0031201) or GLP methyltransferase (Cayman Chemical, 10755). The methyl donor in each reaction was unlabeled S-Adenosyl-L-Methionine (NEB, B9003S). […]
# (§2) For the Liquid Chromatography and High-resolution Mass Spectrometry (LC-MS) analysis, samples were prepared as described above and about 1 μg o the product was injected onto a Thermo Scientific Easy nLC system configured with a 10 cm×100 um trap column and a 25 cm×100 um ID resolving column. […] This ensured optimal full-scan data for quantification. […]
# (§3) Protein identification was performed using Thermo Scientific Proteome Discoverer version 1.4 (including Sequest and Percolator algorithms) using RefSeqHuman sequence database. […] Protein quantification was performed using Pinpoint version 1.4 software. The Pinpoint quantification workflow included importing the Proteome Discoverer .msf files as spectral libraries. Identified peptides were subsequently quantified in MS .raw files using the Pinpoint peak finding, chromatographic alignment and area calculation algorithms. […]
# [2] = biological target: T2, K180me2 peptide (H1.0 AA 165-182) (Homo sapiens, UniProt P07305); assay: as above; conditions: K180me2 peptide as substrate
# T2 construct: the K180me2 peptide (H1.0 AA 165-182) was used as a substrate; purchased ThermoFisher Scientific (peptide); NEB (G9A) M0235S (G9A)
# Protocol: In order to identify the precise sites of methylation by G9A and GLP methyltransferases on histone H1.0, in vitro methylation assays were performed and subsequently analyzed by Liquid Chromatography and High-resolution Mass Spectrometry (LC-MS) analysis. Methylation reactions were set up using either G9A methyltransferase (NEB, M0235S, Lot #0031201) or GLP methyltransferase (Cayman Chemical, 10755). The methyl donor in each reaction was unlabeled S-Adenosyl-L-Methionine (NEB, B9003S). The H1.0 substrate in each reaction was either unmodified H1.0 peptide labeled with biotin (ThermoFisher Scientific, Biotin-[…] (SEQ ID NO:75)), di-methylated H1.0 peptide (ThermoFisher Scientific, Biotin-[…]^(me2)PK (SEQ ID NO:76)), or full-length recombinant human H1.0 (NEB, M2501S). Methylation reactions were set up in triplicate for each condition as follows: 1×HMT reaction buffer (50 mM Tris-HCl, 5 mM MgCl2, 4 mM dithiothreitol, pH 9.0); 10 U G9A or GLP Methyltransferase; 3.2 mM S-Adenosyl-L-Methionine; 500 ng unmodified or modified H1.0 peptide, or 1 μg full-length protein; final volume 10 μl. As controls, reactions were set up as above but without any methyltransferase present. […]
# as §2, §3
# [3] = biological target: T3, unmodified H1.0 peptide ([…] (SEQ ID NO:42)) (Homo sapiens, UniProt P07305); assay: as above
# T3 construct: purchased ThermoFisher Scientific (peptide); NEB (G9A) M0235S (G9A)
# Protocol: as §1, §2, §3
# H1.0 peptide = biological target: T4, H1.0 peptide (Homo sapiens, UniProt P07305); assay: Radiolabel in vitro methylation assay with G9A; conditions: 10 U G9A, 37° C. 1 hour, autoradiography
# T4 construct: purchased ThermoFisher Scientific (peptide); NEB (G9A) M0235S (G9A)
# Protocol: In order to visualize methylation of H1.0 peptide by G9A methyltransferase in vitro, a methylation assay was performed incorporating a radiolabelled methyl donor, which allows for visualization of methylated peptide on a gel after autoradiography exposure. The following methylation reaction was set up in a 1.5 ml tube: 1×HMT reaction buffer (50 mM Tris-HCl, 5 mM MgCl2, 4 mM dithiothreitol, pH 9.0), 10 U G9A Methyltransferase (NEB, M0235S, Lot #0031201), 3.2 mM Adenosyl-L-Methionine, S-[Methyl-3H] (Perkin Elmer, NET155H, Lot #1664720), 10 μg H1.0 peptide (ThermoFisher Scientific, Biotin-[…] (SEQ ID NO:75)), final volume 10 μl. A control reaction as above but without H1.0 peptide was also created. Reactions were incubated in a thermocycler at 37° C. for 1 hour. Reactions were stopped by incubating on ice for 5 minutes, and subsequently resolved on a 16.5% Tricine gel (BioRad, 4563063). Gels were soaked in 30% methanol, 5% glycerol for 30 minutes before vacuum drying at RT for 24 hours. Autoradiography analysis of dried gels with a phosphorimager (Molecular Dynamics) was then performed to assess effective methylation of H1.0 peptide with methyl-3H groups by the G9A methyltransferase.
# The methylation reaction was subsequently resolved on a gel and visualized via autoradiography. […] A control reaction lacking H1.0 peptide yielded no tritium-labeled products.
molecule,measurement,setting,value
"G9A: recombinant G9A methyltransferase (NEB, M0235S) (protein, UniProt Q96KQ7 2-1210, looked up) Histone-lysine …: AAAAGAAAAAAAEGEAPAEMGALLLEKETRGATERVHGSLGDTPRSEETLPKATPDSLEPAGPSSPASVTVTVGDEGADTPVGATPLIGDESENLEGDGDLRGGRILLGHATKSFPSSPSKGGSCPSRAKMSMTGAGKSPPSVQSLAMRLLSMPGAQGAAAAGSEPPPATTSPEGQPKVHRARKTMSKPGNGQPPVPEKRPPEIQHFRMSDDVHSLGKVTSDLAKRRKLNSGGGLSEELGSARRSGEVTLTKGDPGSLEEWETVVGDDFSLYYDSYSVDERVDSDSKSEVEALTEQLSEEEEEEEEEEEEEEEEEEEEEEEEDEESGNQSDRSGSSGRRKAKKKWRKDSPWVKPSRKRRKREPPRAKEPRGVNGVGSSGPSEYMEVPLGSLELPSEGTLSPNHAGVSNDTSSLETERGFEELPLCSCRMEAPKIDRISERAGHKCMATESVDGELSGCNAAILKRETMRPSSRVALMVLCETHRARMVKHHCCPGCGYFCTAGTFLECHPDFRVAHRFHKACVSQLNGMVFCPHCGEDASEAQEVTIPRGDGVTPPAGTAAPAPPPLSQDVPGRADTSQPSARMRGHGEPRRPPCDPLADTIDSSGPSLTLPNGGCLSAVGLPLGPGREALEKALVIQESERRKKLRFHPRQLYLSVKQGELQKVILMLLDNLDPNFQSDQQSKRTPLHAAAQKGSVEICHVLLQAGANINAVDKQQRTPLMEAVVNNHLEVARYMVQRGGCVYSKEEDGSTCLHHAAKIGNLEMVSLLLSTGQVDVNAQDSGGWTPIIWAAEHKHIEVIRMLLTRGADVTLTDNEENICLHWASFTGSAAIAEVLLNARCDLHAVNYHGDTPLHIAARESYHDCVLLFLSRGANPELRNKEGDTAWDLTPERSDVWFALQLNRKLRLGVGNRAIRTEKIICRDVARGYENVPIPCVNGVDGEPCPEDYKYISENCETSTMNIDRNITHLQHCTCVDDCSSSNCLCGQLSIRCWYDKDGRLLQEFNKIEPPLIFECNQACSCWRNCKNRVVQSGIKVRLQLYRTAKMGWGVRALQTIPQGTFICEYVGELISDAEADVREDDSYLFDLDNKDGEVYCIDARYYGNISRFINHLCDPNIIPVRVFMLHQDLRFPRIAFFSSRDIRTGEELGFDYGDRFWDIKSKYFTCQCGSEKCKHSAEAIALEQSRLARLDPHPELLPELGSLPPVNT",sites of methylation on full-length H1.0,[1],"methylates C-terminal lysine residues, including H1.0K180me2"
same,"H1.0K166me1K180me2, % of the total peptide in the reaction",[2],1.27%
same,"H1.0K174me1K180me3, % of the total peptide in the reaction",[2],1.06%
same,"H1.0K174me3K175me3K177me1K180me2, % of the total peptide in the reaction",[2],0.35%
same,"peptides dimethylated at H1.0K180, % of all peptides","[3]; 10 U enzyme, 3.2 mM S-Adenosyl-L-Methionine, 37° C. 1 hour, spectral counts",99.9%
same,estimated methylation efficiency for K180 dimethylation,"[3]; other lysines (K166, K174, K175 or K177) not dimethylated",about 99%
same,methylation of H1.0 peptide with tritium-labeled methyl groups (band at 4 kDa),H1.0 peptide,capable of methylating H1.0 peptide
